Data on 34 substances can be found in US12643935B2, “PD-L1 binding peptides” (UNIVERSITY OF SOUTHERN CALIFORNIA, priority 2020, dated 2026).

For assay [1], the target named is T1, hPD-L1 (Homo sapiens, UniProt Q9NZQ7). Put plainly: Radiolabeled [35S] peptide binding assay on immobilized hPD-L1. Also noted: designed from A18 to T239 with a methionine added to the N-terminus; hexahistidine tag (C); made in house. Conditions: for hPD-L1 binding of SPAM alanine mutant normalized to SPAM: [35S]-labeled variants, n=3. Here is the method: [^35S]-labeled peptides were translated as described above by including 2 μCi labeled methionine (Perkin Elmer) per 10 pmol of template in the translation reaction. Each peptide was tested with a […] (for X9-library derived peptides) (SEQ ID NO: 11) or a […] (for X17-library derived peptides) (SEQ ID NO: 12) C-terminal sequence. […] The supernatant was removed and was counted. The beads were subsequently washed three times with 1 mL of blocking buffer and the washes were also counted. Finally, the beads were resuspended in 1 mL of blocking buffer and were counted separately. The ratio of the counts remaining on the beads to the total counts added to the binding reaction (the sum of the counts for supernatant, washes, and beads) was calculated to determine the percent bound.

Assay [2] deals with hPD-L1. The settings on record: known peptides; cited from earlier work.
The target in assay [3] is T1, hPD-L1. Nature of the assay: Radioactive binding assay of second-generation clones on immobilized human PD-L1. Also noted: target for immobilization and selection, the extracellular domain of hPD-L1 (from A18 to T239); hexahistidine tag (C). Conditions: 22° C., 2.5 or 12.5 pmol immobilized PD-L1.

Where no end group is shown, it is not given here. [ ]: non-standard residue; d: D form. NMeNle = CCCC[C@H](NC)C(=O)O; NMeA = CN[C@@H](C)C(=O)O

As to “A18: SPAM variant, glycine substituted for alanine at position 18 (MPIFLDHILNKFWILHYGGSGSSGHHHHHHSS; not fully specified) [Peptide A18]”, the “hPD-L1 binding of SPAM alanine mutant normalized to SPAM” value with hPD-L1 [1] was “completely abolished hPD-L1 binding”. Same read-out and setting: the result for “18A: SPAM variant, alanine substituted at position 8 (MPIFLDHALNKFWILHYAGSGSSGHHHHHHSS) [Peptide 18A]” reads “little or no significant influence”. What is called EC50 is the concentration needed to bring the measured effect to its halfway point. A word on the IC50: it is the midpoint of a concentration-inhibition curve. “Cyclo[(AcPhe)NMeAla)NPHLSWSW(NMeNle)(NMeNle)RC]Gly-NH2 (Ac-F[NMeA]NPHLSWSW[NMeNle][NMeNle]RCG-NH2; bridge (positions not given here); also: cyclic, ring from residue 1 to Cys 14, linkage type not given here) [Peptide-57]”: in the assay on hPD-L1 [2], the EC50 was 566 nM and the IC50 was 9 nM.

For “H7A: SPAM variant, alanine substituted at position 7 (MPIFLDAILNKFWILHYAGSGSSGHHHHHHSS) [Peptide H7A]”, the “hPD-L1 binding of SPAM alanine mutant normalized to SPAM” value with hPD-L1 [1] was “completely abolished hPD-L1 binding”.

Regarding “F4A: SPAM variant, alanine substituted at position 4 (MPIALDHILNKFWILHYAGSGSSGHHHHHHSS) [Peptide F4A]”, the “hPD-L1 binding of SPAM alanine mutant normalized to SPAM” value in the assay with hPD-L1 [1] is given as “little or no significant influence”. The same measure, in the same setting: the value for “N10A: SPAM variant, alanine substituted at position 10 (MPIFLDHILAKFWILHYAGSGSSGHHHHHHSS) [Peptide N10A]” was “completely abolished hPD-L1 binding”; that for “K11A: SPAM variant, alanine substituted at position 11 (MPIFLDHILNAFWILHYAGSGSSGHHHHHHSS) [Peptide K11A]” was “completely abolished hPD-L1 binding”.

Turning to MYTQTDHTLNKFLIMHEAFNST [Peptide 3], the “binding to immobilized human PD-L1 relative to parental SPAM (S)” value with hPD-L1 [3] is “better binding than the parental SPAM”. As for “114A: SPAM variant, alanine substituted at position 14 (MPIFLDHILNKFWALHYAGSGSSGHHHHHHSS) [Peptide 114A]”, the “hPD-L1 binding of SPAM alanine mutant normalized to SPAM” value in the assay with hPD-L1 [1] is on record as “completely abolished hPD-L1 binding”. As usually defined, the Kd is the concentration at which binding is half-saturated. In the case of WHFSYNWRWLPP [CLP003], in the assay with hPD-L1 [2], the IC50 was 2220 nM and the equilibrium dissociation constant (Kd) is 117 nM. With KHAHHTHNLRLP [D-PPA-2], the Kd on hPD-L1 [2] is 1130 nM. Consider SGQYASYHCWCWRDPGRSGGSK [TPP-1], for which the Kd at hPD-L1 [2] is 95 nM. On to MKHSTDHVLNKFYIMHYTANPN [Peptide 9], for which the “binding to immobilized human PD-L1 relative to parental SPAM (S)” value in the assay with hPD-L1 [3] is recorded as “better binding than the parental SPAM”. As for WHRSYYTWNLNT [CLP002], in the assay with hPD-L1 [2], the IC50 is 2170 nM and the Kd was 366 nM. As to NYSKPTDRQYHF [D-PPA-1], the Kd at hPD-L1 [2] is 510 nM. Turning to MWSRSDHNLNKFWILHYSANPS [Peptide 7], the “binding to immobilized human PD-L1 relative to parental SPAM (S)” value in the assay with hPD-L1 [3] was “better binding than the parental SPAM”. Consider “F12A: SPAM variant, alanine substituted at position 12 (MPIFLDHILNKAWILHYAGSGSSGHHHHHHSS) [Peptide F12A]”, for which the “hPD-L1 binding of SPAM alanine mutant normalized to SPAM” value with hPD-L1 [1] is “completely abolished hPD-L1 binding”. On the same count and under the same terms, the value for “P2A: SPAM variant, alanine substituted at position 2 (MAIFLDHILNKFWILHYAGSGSSGHHHHHHSS) [Peptide P2A]” was “decreased levels of hPD-L1 binding”. On to DYHDPSLPTLRK [CLP004], for which, in the assay with hPD-L1 [2], the half-maximal inhibitory concentration (IC50) was 1170 nM and the Kd is 544 nM. As for HYPFRPHANQAS [CLP001], the Kd at hPD-L1 [2] was 534 nM. For the substance “Y18A: SPAM variant, alanine substituted for tyrosine (position 17 of SPAM) (MPIFLDHILNKFWILHAAGSGSSGHHHHHHSS) [Peptide Y18A]”, in the assay with hPD-L1 [1], the “hPD-L1 binding of SPAM alanine mutant normalized to SPAM” value is on record as “decreased levels of hPD-L1 binding”. The same measure, in the same setting: the value for “L5A: SPAM variant, alanine substituted at position 5 (MPIFADHILNKFWILHYAGSGSSGHHHHHHSS) [Peptide L5A]” was “little or no significant influence”.

Regarding MYTSTDHILNKFLILHESLQST [Peptide 6], the “binding to immobilized human PD-L1 relative to parental SPAM (S)” value with hPD-L1 [3] is on record as “better binding than the parental SPAM”. Same read-out and setting: the value for MYSLNDHNLNKFWILHFAVNQM [Peptide 5] was “better binding than the parental SPAM”. On to “W13A: SPAM variant, alanine substituted at position 13 (MPIFLDHILNKFAILHYAGSGSSGHHHHHHSS) [Peptide W13A]”, for which the “hPD-L1 binding of SPAM alanine mutant normalized to SPAM” value in the assay with hPD-L1 [1] is listed as “completely abolished hPD-L1 binding”. The same measure, in the same setting: the result for “L15A: SPAM variant, alanine substituted at position 15 (MPIFLDHILNKFWIAHYAGSGSSGHHHHHHSS) [Peptide L15A]” reads “completely abolished hPD-L1 binding”; that for “H16A: SPAM variant, alanine substituted at position 16 (MPIFLDHILNKFWILAYAGSGSSGHHHHHHSS) [Peptide H16A]”, “completely abolished hPD-L1 binding”. Take MYTDADHILNKFLIMHYARNQQ [Peptide 1]: the “binding to immobilized human PD-L1 relative to parental SPAM (S)” value with hPD-L1 [3] is on record as “better binding than the parental SPAM”. Take “13A: SPAM variant, alanine substituted at position 3 (MPAFLDHILNKFWILHYAGSGSSGHHHHHHSS) [Peptide 13A]”: the “hPD-L1 binding of SPAM alanine mutant normalized to SPAM” value in the assay with hPD-L1 [1] was “little or no significant influence”. Consider “Cyclo[(AcPhe)(NMePhe)(NMeNle)(Sar)DV(NMePhe)Y(Sar)WYLC-Gly-NH2 [Peptide-71]”, for which, in the assay on hPD-L1 [2], the EC50 was 293 nM and the IC50 was 7 nM. MYSRVDHNLNKFWILHQALKSN [Peptide 8]: the “binding to immobilized human PD-L1 relative to parental SPAM (S)” value in the assay with hPD-L1 [3] was “better binding than the parental SPAM”. Regarding “MRIFAVFIFMTYWHLLNA [hPD-L1 signal peptide]”, the “binding to heavily loaded hPD-L1 beads” value with hPD-L1 [1] (streptavidin agarose beads loaded with 1.1 μM hPD-L1 (1,100 pmol)) was “some binding”. In the case of “D6A: SPAM variant, alanine substituted at position 6 (MPIFLAHILNKFWILHYAGSGSSGHHHHHHSS) [Peptide D6A]”, the “hPD-L1 binding of SPAM alanine mutant normalized to SPAM” value with hPD-L1 [1] was “completely abolished hPD-L1 binding”. The same measure, in the same setting: the result for “L9A: SPAM variant, alanine substituted at position 9 (MPIFLDHIANKFWILHYAGSGSSGHHHHHHSS) [Peptide L9A]” reads “little or no significant influence”.
